From publication PMC3447998 (Biochemistry, 2012) come the findings set out here.

In assay [1] the target is T1, recombinant human NRMT (N-terminal RCC1 methyltransferase) (human, UniProt Q9BV86 1-223).
T1 sequence (looked up): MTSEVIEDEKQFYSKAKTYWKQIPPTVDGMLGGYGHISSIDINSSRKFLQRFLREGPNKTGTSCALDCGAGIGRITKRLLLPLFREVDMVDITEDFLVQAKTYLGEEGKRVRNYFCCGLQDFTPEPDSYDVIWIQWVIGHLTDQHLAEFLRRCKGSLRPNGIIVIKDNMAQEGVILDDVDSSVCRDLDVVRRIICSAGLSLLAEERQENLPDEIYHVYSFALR
The experiment in a line: ITC.

For assay [2], the target named is T1, recombinant human NRMT (N-terminal RCC1 …). In words: ITC. The source holds these as a separate data set.

Where no end group is shown, it is not given here. Me3 = trimethylated alpha-amino group on the N-terminal residue; Me2 = dimethylated alpha-amino group on the N-terminal residue

As for SPKRIAKRRS [SPKRIAKRRS, wild-type 10-residue SPK-RCC1 N-terminal peptide], the Ka in assay [1] was 100000 M⁻¹. In assay [2], the Kd turned out to be 10000 nM, the dH is -9.94 ± 0.207 kcal/mol and the “stoichiometry N” value came out at 0.8.
For Me2-PPKRIAKRRS [me2PPKRIAKRRS, 10-residue me2-PPK-RCC1 N-terminal product peptide] the same measures were 770000 M⁻¹, 1300 nM, -5.77 ± 0.093 kcal/mol and 0.9.
Regarding PPKRIAKRRS [PPKRIAKRRS, 10-residue PPK-RCC1 N-terminal peptide], in assay [2], the “Kd of the first phase of the bi-phasic curve” value came to 1.5 nM, the “Kd of the second phase of the bi-phasic curve” value was found to be 140 nM, the “dH of the first phase of the bi-phasic curve” value was -31 ± 0.221 kcal/mol and the “dH of the second phase of the bi-phasic curve” value is -9.43 ± 0.192 kcal/mol.
Take Me3-SPKRIAKRRS [me3SPKRIAKRRS, 10-residue me3-SPK-RCC1 N-terminal product peptide]: in assay [1], the Ka was 480000 M⁻¹. Besides, in assay [2], the Kd is 2000 nM, the dH is -4.33 kcal/mol and the “stoichiometry N” value came out at 1.2.
